{"source": "patent US20080176247A1", "about": "(INDUSTRIAL TECHNOLOGY RESEARCH INSTITUTE, published 2008)", "binders": {"B1": {"name": "erb_scFv (scFv, not shown: small tags and cut ends)", "scFv": "MAEVQLLESGGGLVQPGGSLRLSCAASGFTFSSYAMSWVRQAPGKGLEWVSDIGASGSATSYADSVKGRFTISRDNSKNTLYLQMNSLRAEDTAVYYCAKSTTTFDYWGQGTLVTVSSGGGGSGGGGSGGGGSTDIQMTQSPSSLSASVGDRVTITCRASQSISSYLNWYQQKPGKAPKLLIYDASALQSGVPSRFSGSGSGTDFTLTISSLQPEDFATYYCQQYADYPTTFGQGTKVEIKR", "notes": "Made in NS0 cells for the SPR work"}, "B2": {"name": "erb_scFv-Fc (Fc fusion)", "chain": "B1 scFv", "notes": "not shown: Fc region"}}, "target": "T1, purified recombinant extracellular domain of EGF receptor (EGFR-ECD; Research Diagnostics, Inc.) (UniProt P00533 25-645, limits assumed)", "T1 construct": "extracellular domain; Bought protein", "assay": "SPR (BIAcore X), EGFR-ECD immobilized on C1 chip, 1:1 Langmuir fit", "description": "Each antibody was injected at indicated concentrations and flowed over a surface chip with immobilized EGFR extracellular domain at a flow rate of 10 μl/min.\nThe surface was regenerated by injection of 5 μl of 10 mM glycine-HCl, pH 3.5. Sensorgrams were obtained at each concentration and were evaluated using the program, BIA Evaluation 3.2. Binding data were titled with a 1:1 Langmuir binding model to calculate the equilibrium dissociation constant, KD, which was defined as the ratio of dissociation rate (koff)/association rate (kₒₙ).", "data": [{"binder": "B1", "values": [{"measurement": "Kd", "value": 4960, "unit": "nM"}, {"measurement": "koff", "value": 0.0741, "unit": "s⁻¹"}, {"measurement": "kon", "value": 15000, "unit": "M⁻¹ s⁻¹"}]}, {"binder": "B2", "values": [{"measurement": "Kd", "value": 104, "unit": "nM"}, {"measurement": "koff", "value": 0.00944, "unit": "s⁻¹"}, {"measurement": "kon", "value": 90900, "unit": "M⁻¹ s⁻¹"}]}]}
